Measurements: the supplement of paper PMC10567573

B1: CPOX (parent)
chain: HAPTIHFNYRYFEVEEADGNKQWW
B2: DFFB (parent)
chain: KLNCDPSRIYKPQTRLKRKQPVRK

Variants of: B1
Assay: protein stability index of a GFP-peptide fusion (GPS, HEK-293T) (PSI 1-6); higher = more stable
Conditions: c terminus: a fixed tail appended
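Note: lentivirally expressed fusions sorted by FACS into six bins by GFP to DsRed ratio, PSI derived from sequencing read proportions per bin multiplied by bin number.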

Question: With HAPCIHFNYRYFEVEEADGNKQWW [T4C] as the variant, how does the protein stability index read?
Answer: 2.01

Question: With HAPQIHFNYRYFEVEEADGNKQWW [T4Q] as the variant, how does the protein stability index read?
Answer: 2.66

Question: With HAPYIHFNYRYFEVEEADGNKQWW [T4Y] as the variant, how does the protein stability index read?
Answer: 1.39

Question: Which protein stability index does the source give for HAPIIHFNYRYFEVEEADGNKQWW [T4I] here?
Answer: 2.21

Question: For HAPKIHFNYRYFEVEEADGNKQWW [T4K], which protein stability index is on record?
Answer: 2.26

Question: With HAPGIHFNYRYFEVEEADGNKQWW [T4G] as the variant, how does the protein stability index read?
Answer: 2.57

Question: Which protein stability index does the source give for HAPSIHFNYRYFEVEEADGNKQWW [T4S] here?
Answer: 2.8

Variants of: B2
Assay: as above
Conditions: c terminus: a fixed tail appended

Question: Which protein stability index does the source give for KLPCDPSRIYKPQTRLKRKQPVRK [N3P] here?
Answer: 3.97

Question: Which protein stability index does the source give for NLNCDPSRIYKPQTRLKRKQPVRK [K1N] here?
Answer: 3.47

Question: For CLNCDPSRIYKPQTRLKRKQPVRK [K1C], which protein stability index is on record?
Answer: 3.2

Question: With ELNCDPSRIYKPQTRLKRKQPVRK [K1E] as the variant, how does the protein stability index read?
Answer: 3.42

Question: For HLNCDPSRIYKPQTRLKRKQPVRK [K1H], which protein stability index is on record?
Answer: 1.93

Question: For KLNADPSRIYKPQTRLKRKQPVRK [C4A], which protein stability index is on record?
Answer: 3.75

Question: With KLNTDPSRIYKPQTRLKRKQPVRK [C4T] as the variant, how does the protein stability index read?
Answer: 3.62

Question: With KLNNDPSRIYKPQTRLKRKQPVRK [C4N] as the variant, how does the protein stability index read?
Answer: 3.74

Question: With KLNRDPSRIYKPQTRLKRKQPVRK [C4R] as the variant, how does the protein stability index read?
Answer: 4.12

Question: For KLNCDPSRIYYPQTRLKRKQPVRK [K11Y], which protein stability index is on record?
Answer: 3.94

Question: For KLNCDPSRIYGPQTRLKRKQPVRK [K11G], which protein stability index is on record?
Answer: 3.17

Question: Which protein stability index does the source give for KLNCDPSRIYKPQTRLKRKQPKRK [V22K] here?
Answer: 3.14

Question: With KLNCDPSRIYKPQTRLKRKQPQRK [V22Q] as the variant, how does the protein stability index read?
Answer: 3.39

Question: Which protein stability index does the source give for KLNCDPSRIYKPQTRLKRKQPERK [V22E] here?
Answer: 3.31

Question: With KLNCDPSRIYKPQTRLKRKQPGRK [V22G] as the variant, how does the protein stability index read?
Answer: 4.39

Question: For KLNCDPSRIYKPSTRLKRKQPVRK [Q13S], which protein stability index is on record?
Answer: 3.44

Question: For KLNCDPSRIYKPATRLKRKQPVRK [Q13A], which protein stability index is on record?
Answer: 4.01

Question: With KLNCDPSRIYKPMTRLKRKQPVRK [Q13M] as the variant, how does the protein stability index read?
Answer: 3.51

Question: With KLNCDPSRIYKPPTRLKRKQPVRK [Q13P] as the variant, how does the protein stability index read?
Answer: 3.76

Question: For KLNCDPSRIYKPETRLKRKQPVRK [Q13E], which protein stability index is on record?
Answer: 4.16

Question: For KLNCDPSRIYKPQTRLKRKQPVRA [K24A], which protein stability index is on record?
Answer: 4.04

Question: For KLNCDPSRIYKPQTRLKRKQPVRY [K24Y], which protein stability index is on record?
Answer: 3.11

Question: With KLNCDPSRIYKPQTRLKRKQSVRK [P21S] as the variant, how does the protein stability index read?
Answer: 3.13

Question: For KLNCDPSRIYKPQTRLKRKQRVRK [P21R], which protein stability index is on record?
Answer: 3.31

Question: Which protein stability index does the source give for KLNCDPSRIYKPQTRLKRKQFVRK [P21F] here?
Answer: 3.37

Question: For KLNCDPSRIYKPQTRLKRKQVVRK [P21V], which protein stability index is on record?
Answer: 3.31

Question: With KLNCDPSRIYKPQTRLKRKQCVRK [P21C] as the variant, how does the protein stability index read?
Answer: 3.36

Question: For KLNCDPSRIYKPQTRLKRKQHVRK [P21H], which protein stability index is on record?
Answer: 3.41

Question: With KLNCKPSRIYKPQTRLKRKQPVRK [D5K] as the variant, how does the protein stability index read?
Answer: 3.8

Question: With KLNCNPSRIYKPQTRLKRKQPVRK [D5N] as the variant, how does the protein stability index read?
Answer: 3.96

Question: Which protein stability index does the source give for KLNCAPSRIYKPQTRLKRKQPVRK [D5A] here?
Answer: 3.46

Question: With KLNCCPSRIYKPQTRLKRKQPVRK [D5C] as the variant, how does the protein stability index read?
Answer: 4.16

Question: Which protein stability index does the source give for KLNCDPYRIYKPQTRLKRKQPVRK [S7Y] here?
Answer: 2.73

Question: Which protein stability index does the source give for KLNCDPARIYKPQTRLKRKQPVRK [S7A] here?
Answer: 3.28

Question: For KLNCDPMRIYKPQTRLKRKQPVRK [S7M], which protein stability index is on record?
Answer: 3.07

Question: Which protein stability index does the source give for KLNCDPSRIYKPQTRLKPKQPVRK [R18P] here?
Answer: 3.83

Question: With KLNCDPSRIYKPQTRLKVKQPVRK [R18V] as the variant, how does the protein stability index read?
Answer: 3.89

Question: With KLNCDPSRIYKPQTRLKEKQPVRK [R18E] as the variant, how does the protein stability index read?
Answer: 4.21

Question: With KLNCDPSRIYKPQTRLKDKQPVRK [R18D] as the variant, how does the protein stability index read?
Answer: 3.34

Question: Which protein stability index does the source give for KLNCDPSRAYKPQTRLKRKQPVRK [I9A] here?
Answer: 3.57

Question: For KLNCDPSRKYKPQTRLKRKQPVRK [I9K], which protein stability index is on record?
Answer: 3.84

Question: For KLNCDPSRIYKPQTRLNRKQPVRK [K17N], which protein stability index is on record?
Answer: 3.21

Question: With KLNCDPSRIYKPQTRLWRKQPVRK [K17W] as the variant, how does the protein stability index read?
Answer: 3.19

Question: For KLNCDPSRIYKPQTRLPRKQPVRK [K17P], which protein stability index is on record?
Answer: 3

Question: Which protein stability index does the source give for KVNCDPSRIYKPQTRLKRKQPVRK [L2V] here?
Answer: 4.01

Question: With KRNCDPSRIYKPQTRLKRKQPVRK [L2R] as the variant, how does the protein stability index read?
Answer: 4.01

Question: With KDNCDPSRIYKPQTRLKRKQPVRK [L2D] as the variant, how does the protein stability index read?
Answer: 4.89

Question: For KENCDPSRIYKPQTRLKRKQPVRK [L2E], which protein stability index is on record?
Answer: 4.52

Question: For KHNCDPSRIYKPQTRLKRKQPVRK [L2H], which protein stability index is on record?
Answer: 2.95

Question: Which protein stability index does the source give for KLNCDPSRIYKPQTRTKRKQPVRK [L16T] here?
Answer: 4.05

Question: For KLNCDPSRIYKPQTRKKRKQPVRK [L16K], which protein stability index is on record?
Answer: 3.07

Question: Which protein stability index does the source give for KLNCDPSRIYKPQTRIKRKQPVRK [L16I] here?
Answer: 3.67

Question: For KLNCDPSRIYKPQTRWKRKQPVRK [L16W], which protein stability index is on record?
Answer: 3

Question: For KLNCDPSRIYKPQTRLKRKFPVRK [Q20F], which protein stability index is on record?
Answer: 3.15

Question: With KLNCDPSRIYKPQTRLKRKRPVRK [Q20R] as the variant, how does the protein stability index read?
Answer: 3.59

Question: With KLNCDPSRIYKPQTRLKRKMPVRK [Q20M] as the variant, how does the protein stability index read?
Answer: 4.04

Question: For KLNCDHSRIYKPQTRLKRKQPVRK [P6H], which protein stability index is on record?
Answer: 3.39

Question: With KLNCDCSRIYKPQTRLKRKQPVRK [P6C] as the variant, how does the protein stability index read?
Answer: 3.22

Question: With KLNCDNSRIYKPQTRLKRKQPVRK [P6N] as the variant, how does the protein stability index read?
Answer: 3.79

Question: For KLNCDRSRIYKPQTRLKRKQPVRK [P6R], which protein stability index is on record?
Answer: 3.7

Question: Which protein stability index does the source give for KLNCDWSRIYKPQTRLKRKQPVRK [P6W] here?
Answer: 3.08

Question: With KLNCDPSRIYKPQTRLKRHQPVRK [K19H] as the variant, how does the protein stability index read?
Answer: 3.49

Question: Which protein stability index does the source give for KLNCDPSRIYKPQTRLKRMQPVRK [K19M] here?
Answer: 3.31

Question: Which protein stability index does the source give for KLNCDPSRIYKPQTRLKREQPVRK [K19E] here?
Answer: 2.93

Question: With KLNCDPSRIYKPQTRLKRTQPVRK [K19T] as the variant, how does the protein stability index read?
Answer: 3.52

Question: For KLNCDPSRIYKPQFRLKRKQPVRK [T14F], which protein stability index is on record?
Answer: 2.68

Question: With KLNCDPSRIYKPQLRLKRKQPVRK [T14L] as the variant, how does the protein stability index read?
Answer: 3.91

Question: For KLNCDPSRIYKPQERLKRKQPVRK [T14E], which protein stability index is on record?
Answer: 3.28

Question: With KLNCDPSRIYKPQCRLKRKQPVRK [T14C] as the variant, how does the protein stability index read?
Answer: 3.61

Question: For KLNCDPSRIYKPQTALKRKQPVRK [R15A], which protein stability index is on record?
Answer: 2.82

Question: For KLNCDPSRIYKPQTPLKRKQPVRK [R15P], which protein stability index is on record?
Answer: 3.6

Question: For KLNCDPSRIYKPQTWLKRKQPVRK [R15W], which protein stability index is on record?
Answer: 3.02

Question: For KLNCDPSRIYKPQTILKRKQPVRK [R15I], which protein stability index is on record?
Answer: 3.52

Question: For KLNCDPSRIYKPQTNLKRKQPVRK [R15N], which protein stability index is on record?
Answer: 3.26

Question: For KLNCDPSRIYKPQTYLKRKQPVRK [R15Y], which protein stability index is on record?
Answer: 2.17

Question: Which protein stability index does the source give for KLNCDPSRIYKEQTRLKRKQPVRK [P12E] here?
Answer: 4.24

Question: Which protein stability index does the source give for KLNCDPSRIYKIQTRLKRKQPVRK [P12I] here?
Answer: 2.85

Question: Which protein stability index does the source give for KLNCDPSRIYKNQTRLKRKQPVRK [P12N] here?
Answer: 4.49

Question: Which protein stability index does the source give for KLNCDPSRIYKFQTRLKRKQPVRK [P12F] here?
Answer: 3.38

Question: With KLNCDPSRIYKGQTRLKRKQPVRK [P12G] as the variant, how does the protein stability index read?
Answer: 3.3

Question: For KLNCDPSRIYKPQTRLKRKQPVTK [R23T], which protein stability index is on record?
Answer: 3.77

Question: With KLNCDPSRIYKPQTRLKRKQPVGK [R23G] as the variant, how does the protein stability index read?
Answer: 3.35

Question: Which protein stability index does the source give for KLNCDPSSIYKPQTRLKRKQPVRK [R8S] here?
Answer: 3.2

Question: For KLNCDPSRICKPQTRLKRKQPVRK [Y10C], which protein stability index is on record?
Answer: 3.62

Question: With KLNCDPSRIRKPQTRLKRKQPVRK [Y10R] as the variant, how does the protein stability index read?
Answer: 3.56

Question: Which protein stability index does the source give for KLNCDPSRIIKPQTRLKRKQPVRK [Y10I] here?
Answer: 3.6

Question: Which protein stability index does the source give for KLNCDPSRIPKPQTRLKRKQPVRK [Y10P] here?
Answer: 3.72
